Experimental data reported in PMC4415690.

Target: TesS thioesterase (SP1408) of Streptococcus pneumoniae, C-terminal FLAG tag (Streptococcus pneumoniae)
Experiment: SEC

Substance: TesS thioesterase (SP1408) of Streptococcus pneumoniae, C-terminal FLAG tag (enzyme)
- stoichiometry N: 2
